In patent US6551840B2, “Method of screening TGF-β-inhibiting substances” (Chugai Seiyaku Kabushiki Kaisha, priority 1997, dated 2003):

Experiments:
[1] = system: human fibroblast-derived HT-1080; assay: Fibronectin EIA in HT-1080 cells expressing TAK1-DN with or without TGF-β; format: cell-based; settings: 1 ng/ml TGF-β, 24 hours; for increase of fibronectin in the culture supernatant by TGF-β addition: control HT/NEO about 6.1 fold; for increase of fibronectin in the extracellular matrix extract by TGF-β addition: control HT/NEO about 11.4 fold
Excerpt: Then, pTAK1DN or pCOS1 that contains no inserted genes as a control vector was linearized by digesting with a restriction enzyme PvuI. These linearized vectors were introduced by electroporation into human fibroblast-derived HT-1080 (ATCC CCL 121), a mouse kidney mesangial cell line SV40MES13 (ATCC CRL 1927), and a mink pulmonary epithelial cell line Mv1Lu (ATCC CCL 64), and cells into which the gene was introduced were selected using G418 (manufactured by GIBCO-BRL).
The human fibroblast-derived HT-1080 cells (HT/DN2 and HT/DN14) into which pTAK1DN had been introduced and the control cells (HT/NEO) into which pCOS1 containing no inserted genes had been introduced were incubated in a low-serum medium (Medium 199 containing 0.2% FBS; manufactured by GIBCO BRL) with or without 1 ng/ml TGF-β (manufactured by King Jozo) for 24 hours. The amount of fibronectin in the culture supernatant or the extracellular matrix extract prepared using 1 M urea solution (1 M urea, 1 mM DTT, 10 mM Tris-HCl, pH 7.4, 10 mM EDTA, Protease inhibitor cocktail (CompleteTM, manufactured by Boehringer-Mannheim)) was determined by the EIA method.
Thus, 100 μl of the culture supernatant or the extracellular matrix extract prepared using 1 M urea solution was added to a 96-well microtiter plate (manufactured by Nunc), and the plate was incubated overnight at 4° C. After washing, it was blocked using a 1% BSA solution (50 mM Tris-HCl, pH 8.0, 1 mM MgCl2, 150 mM NaCl, 0.05% Tween 20, 0.02% sodium azide), and then 10000 fold-diluted rabbit anti-human fibronectin antibody (manufactured by CALBIOCHEM) was added to the above 1% BSA solution, and was further incubated at room temperature for 2 hours.
After washing, alkaline phosphatase-labeled goat anti-rabbit Ig antibody (manufactured by TAGO) was added, and was further incubated at room temperature for one hour. Then the substrate solution (p-nitrophenyl phosphate; manufactured by Sigma) was added and absorbance at […] was measured. As a standard, human fibronectin (manufactured by Cappel) was used.

TAB1 = target: T1, TAB1 (Homo sapiens, UniProt Q15750); assay: Animal cell 2-hybrid system in CHO cells, luciferase activity; format: cell-based; settings: 72 hours after gene introduction, similar to pM-TAK1 and pVP16-C68
T1 construct: expressed in transfected cells; host or cells: CHO cells
T1 sequence (Q15750 437-504): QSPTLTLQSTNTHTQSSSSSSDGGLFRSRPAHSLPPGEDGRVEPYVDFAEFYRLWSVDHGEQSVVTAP
Procedure: It was analyzed whether a polypeptide (TAK1-DN) comprising Glu at position 77 to Gln at position 303 of the TAK1 polypeptide as set forth in SEQ ID NO: 4 inhibits binding between the TAK1 polypeptide and the TAB1 polypeptide and whether it can inhibit the activation of the TAK1 polypeptide in animal cells by an animal cell 2-hybrid system (Dang et al., (1991) Mol. Cell. Biol. 11, 954-962) using the TAB1 polypeptide and the TAK1 polypeptide.
First, a gene encoding a full-length TAK1 and TAK1-DN and a gene encoding the GAL4 DNA-binding domain (GAL4-BD) were ligated to construct an expression vector. A gene encoding a full-length TAK1 was prepared by digesting yeast 2-hybrid expression plasmid pBTMHu11F (Shibuya H. et al., (1996) 272, 1179-1182) with restriction enzymes EcoRI and PstI, and was then linked to the EcoRI/Pst site of an expression vector pM (manufactured by CLONTECH) containing the GAL4-BD gene, which was termed an animal cell 2-hybrid expression plasmid pM-TAK1. […]
After further incubating for 72 hours, luciferase activity in each cell extract was determined using the Dual-LuciferaseTM Assay System (manufactured by Promega). […] The efficiency of gene introduction was corrected with the measured value of luciferase activity of Renilla by pRL-SV40.

B1: TAK1-DN: polypeptide of Glu at position 77 to Gln at position 303 of TAK1 (SEQ ID NO: 4), the TAB1 binding site; dominant negative inhibitor (protein)
chain: ELRQLSRVNHPNIVKLYGACLNPVCLVMEYAEGGSLYNVLHGAEPLPYYTAAHAMSWCLQCSQGVAYLHSMQPKALIHRDLKPPNLLLVAGGTVLKICDFGTACDIQTHMTNNKGSAAWMAPEVFEGSNYSEKCDVFSWGIILWEVITRRKPFDEIGGPAFRIMWAVHNGTRPPLIKNLPKPIESLMTRCWSKDPSQRPSMEEIVKIMTHLMRYFPGADEPLQYPCQ
increase of fibronectin in the culture supernatant by TGF-β addition ([1]; HT/DN2 cells): about 2.6 fold | increase of fibronectin in the extracellular matrix extract by TGF-β addition ([1]; HT/DN2 cells): about 3.5 fold | increase of fibronectin in the culture supernatant by TGF-β addition ([1]; HT/DN14 cells): ~3.0 fold | increase of fibronectin in the extracellular matrix extract by TGF-β addition ([1]; HT/DN14 cells): ~3.6 fold | binding to TAB1: luciferase activity for pM-TAK1DN and pVP16-C68 (TAB1): binds to TAB1
